Biological target: Human CGRP (Example 4, isoform not stated) (human) (UniProt P80511)
Assay: cell-based or functional assay

Chain of UniProt P80511 (P80511 2-92 limits assumed): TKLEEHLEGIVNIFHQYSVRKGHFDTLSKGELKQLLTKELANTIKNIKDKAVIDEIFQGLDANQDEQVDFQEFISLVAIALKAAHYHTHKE

- IC50, inhibition of CGRP-induced cAMP in SK-N-MC cells (HTRF): 10.1 nM
Substance: monoclonal antibody C7113 (Sigma-Aldrich, St. Louis, MO)
